Consider 5 substances from PMC7066243.

Experiment [1] concerns the target T1, ether-a-go-go 1 voltage-gated potassium channel (hEAG1) (human) (UniProt O95259).
T1 sequence: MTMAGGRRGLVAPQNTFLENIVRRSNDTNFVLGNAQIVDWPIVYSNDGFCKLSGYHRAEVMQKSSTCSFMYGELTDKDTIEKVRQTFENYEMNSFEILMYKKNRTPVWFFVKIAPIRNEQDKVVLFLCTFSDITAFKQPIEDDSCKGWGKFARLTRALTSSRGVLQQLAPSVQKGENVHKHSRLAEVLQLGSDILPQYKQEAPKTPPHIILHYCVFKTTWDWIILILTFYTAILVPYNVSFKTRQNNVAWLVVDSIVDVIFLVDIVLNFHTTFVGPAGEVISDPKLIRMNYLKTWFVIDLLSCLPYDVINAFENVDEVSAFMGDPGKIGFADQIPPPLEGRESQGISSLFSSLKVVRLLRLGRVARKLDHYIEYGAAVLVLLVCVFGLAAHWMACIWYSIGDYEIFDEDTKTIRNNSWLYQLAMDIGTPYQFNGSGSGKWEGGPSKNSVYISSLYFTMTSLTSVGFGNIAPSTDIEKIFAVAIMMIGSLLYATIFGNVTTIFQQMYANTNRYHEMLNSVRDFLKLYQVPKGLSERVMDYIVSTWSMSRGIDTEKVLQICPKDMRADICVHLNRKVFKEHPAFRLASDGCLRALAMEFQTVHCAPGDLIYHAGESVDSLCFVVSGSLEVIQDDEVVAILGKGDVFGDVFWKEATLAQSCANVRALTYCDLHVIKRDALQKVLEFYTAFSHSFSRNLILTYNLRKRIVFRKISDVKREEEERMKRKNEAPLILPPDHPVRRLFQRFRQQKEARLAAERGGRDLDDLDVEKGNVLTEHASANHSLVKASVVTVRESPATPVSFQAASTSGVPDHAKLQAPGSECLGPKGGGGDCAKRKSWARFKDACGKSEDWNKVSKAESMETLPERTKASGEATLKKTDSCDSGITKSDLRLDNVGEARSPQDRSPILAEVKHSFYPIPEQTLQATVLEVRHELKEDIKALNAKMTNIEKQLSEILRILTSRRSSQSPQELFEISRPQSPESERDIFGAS

Experiment [2] has as its target T1, ether-a-go-go 1 voltage-gated potassium channel (hEAG1) (human). The source holds these as a separate data set.

In turn, “BjSP (from UniProt Q5W959 25-258) (enzyme)” registered an inhibition of hEAG1 current at 5 µM (two-electrode voltage clamp, Xenopus laevis oocytes) in experiment [1] of 9.2%. The substance “gyroxin_B1.3 (from UniProt B0FXM1 25-262) (enzyme)” registered an inhibition of hEAG1 current at 5 µM (two-electrode voltage clamp, Xenopus laevis oocytes) in experiment [1] of 58%. In experiment [2], mutant collinein-1 (His43Arg) (enzyme) came in with an IC50 of inhibition of hEAG1 current (two-electrode voltage clamp, Xenopus laevis oocytes) of 4.3 µM. Same read-out and setting: with native collinein-1 (enzyme) the figure was 4.2 µM; with recombinant collinein-1 (enzyme), 2.5 µM.
